The source of these data is US20190022259A1, “Use of 99mTc-tilmanocept and related molecular constructs for identifying and diagnosing malignant tumors and for monitoring therapeutic anti-tumor interventions” (Navidea Biopharmaceuticals, Inc., priority 2017, published 2019).

The conditions of data set [1]: human, in vivo.
Experimental: A safety follow-up was conducted between 2 to 8 days after the injection.
The conditions of data set [2]: rat, in vivo, iv; cited from earlier work.
The subject of data set [3] is TAMs around liver metastases (CD206+ macrophages). Kind of data set: SPECT/CT imaging of colorectal cancer patients with synchronous liver metastasis after intravenous injection. It is filed as in vivo, human. To be noted: imaging 4-6 hours after injection.

Entries after “also recorded” stand apart in the source; their conditions may differ.

For the substance “(99m)Tc-diethylenetriaminepentaacetic acid (DTPA)-mannosyl-dextran [^99mTc tilmanocept]”, in data set [1], the adverse drug reactions entry is given as “No adverse drug reactions were observed”. The “tolerability of IV injection” value in data set [1] (iv) is reported as “well-tolerated”. Moreover, the excretion entry in data set [2] was “excreted into the urine”. Further, the “localization on SPECT/CT image” value in data set [3] (first subject, 50 μg/2mCi i.v.) is reported as “localization of ^99mTc tilmanocept in an area of larger metastasis than was observed with the FDG PET/CT; also recorded: suggests the presence of TAMs around the metastasis”; in data set [3] (second subject, 200 μg/2mCi i.v.), “Localization around the metastasis was noted”.
